In patent US20190224333A1 (published 2019):

Target: T1, fibrin (human, UniProt P02671 36-629; P02675 45-491; P02679 27-437, limits assumed)
T1 construct: Thin polymerised fibrin layer made by layer-by-layer deposition of fibrinogen-thrombin-fibrinogen on ELISA plates, SPR chips and interferometry sensors; Human is stated for the purified fibrinogen used in biopanning; also called fibrin layer; fibrin clot
T1 sequence (looked up) 1: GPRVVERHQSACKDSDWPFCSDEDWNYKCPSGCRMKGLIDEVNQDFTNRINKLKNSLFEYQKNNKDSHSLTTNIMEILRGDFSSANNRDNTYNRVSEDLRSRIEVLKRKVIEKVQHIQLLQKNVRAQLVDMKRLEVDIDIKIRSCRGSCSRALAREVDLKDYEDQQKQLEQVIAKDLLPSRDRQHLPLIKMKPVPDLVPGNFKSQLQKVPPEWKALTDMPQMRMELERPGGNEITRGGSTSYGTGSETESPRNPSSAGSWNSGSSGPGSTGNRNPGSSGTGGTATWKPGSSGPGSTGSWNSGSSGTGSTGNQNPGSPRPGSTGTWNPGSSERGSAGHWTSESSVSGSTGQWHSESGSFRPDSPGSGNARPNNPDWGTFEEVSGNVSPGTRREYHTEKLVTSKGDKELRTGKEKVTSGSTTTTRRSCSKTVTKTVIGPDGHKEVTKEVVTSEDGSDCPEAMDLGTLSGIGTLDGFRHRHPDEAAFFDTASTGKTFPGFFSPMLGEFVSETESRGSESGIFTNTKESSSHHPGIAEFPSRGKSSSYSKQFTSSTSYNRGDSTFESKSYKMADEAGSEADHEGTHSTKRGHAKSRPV
T1 sequence (looked up) 2: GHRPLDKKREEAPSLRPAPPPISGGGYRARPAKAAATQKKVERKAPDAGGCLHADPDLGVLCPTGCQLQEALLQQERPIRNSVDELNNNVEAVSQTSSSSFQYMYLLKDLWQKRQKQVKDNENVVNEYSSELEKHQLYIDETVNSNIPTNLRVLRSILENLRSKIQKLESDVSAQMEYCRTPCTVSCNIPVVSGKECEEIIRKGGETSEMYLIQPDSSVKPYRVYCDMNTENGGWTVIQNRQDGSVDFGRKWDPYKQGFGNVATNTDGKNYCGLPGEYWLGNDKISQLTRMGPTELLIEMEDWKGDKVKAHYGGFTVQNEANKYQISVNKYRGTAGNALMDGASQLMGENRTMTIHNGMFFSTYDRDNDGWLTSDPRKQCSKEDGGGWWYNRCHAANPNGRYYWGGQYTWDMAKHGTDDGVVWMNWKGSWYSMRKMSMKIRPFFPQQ
T1 sequence (looked up) 3: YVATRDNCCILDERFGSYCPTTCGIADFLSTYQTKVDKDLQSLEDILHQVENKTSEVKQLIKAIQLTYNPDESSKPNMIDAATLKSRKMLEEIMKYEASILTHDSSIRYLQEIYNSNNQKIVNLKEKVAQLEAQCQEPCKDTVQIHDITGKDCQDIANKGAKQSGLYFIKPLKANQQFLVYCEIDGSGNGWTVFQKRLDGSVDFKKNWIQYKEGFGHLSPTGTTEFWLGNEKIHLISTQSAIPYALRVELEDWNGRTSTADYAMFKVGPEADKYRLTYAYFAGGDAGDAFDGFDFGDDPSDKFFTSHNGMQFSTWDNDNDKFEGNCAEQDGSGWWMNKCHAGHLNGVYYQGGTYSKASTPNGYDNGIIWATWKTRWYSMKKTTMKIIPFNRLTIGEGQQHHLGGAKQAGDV
Test: SPR, sdFv flowed over immobilised fibrin layer, 1:1 Langmuir fit
Procedure: Based on previous SPR protocols developed in the lab⁴, a thin fibrin layer was immobilized on the surface of a gold SPR chip via layer-by-layer deposition of fibrinogen-thrombin-fibrinogen³. SdFvs were flowed across the fibrin surface and the binding interactions were evaluated and recorded. Additionally, antibody fragment binding interactions with a surface of immobilized fibrinogen was used to investigate the specificity to fibrin. All SPR data was examined and analyzed with Scrubber 2 and Clamp XP (Center for Biomolecular Interactions Analysis, University of Utah). Data simulation curves were generated based on a Langmuir 1:1 binding model assuming only a single ligand-analyte interaction.
The four most promising clones, based on their selectivity for fibrin over fibrinogen (clones A2, A6, B3 and H6) and a random clone (S11) were then evaluated through SPR analysis (FIGS. 2B-2K). […] Clones H6 and S11 (negative control) were subsequently utilized for creation of PLPs. Interferometry analysis verified that sdFv-microgels maintained their fibrin-binding capabilities (FIG. 3).

B1: H6 (VHH)
VHH: QVQLLESGGGLVQPGGSLRLSCAASGDRFTHNDMGWVRQAPGKGLEWVSTIPTTDGSTYYADSVKGRFTISRDNSKSTLYLQMNSLRAEDTAVYYCATGYMWKAPAYVKYWGQGTLVTVSS
notes: Human-derived single domain variable fragment (sdFv, VH only) from a phagemid library; Made as soluble sdFv in E. coli HB2151 and purified on protein A; also called clone H6; fibrin-specific sdFv
Kd: 199 nM
